Assay results published in patent US20240199762A1 (PHILOGEN S P A, published 2024).

Experiments:
[1] = target: T1, canine FAP (caFAP) extracellular domain (ECD) (domestic dog (Canis familiaris)); assay: ELISA, 120 nM caFAP-ECD coated on Maxisorp plates
T1 construct: also called caFAP-ECD
T1 chain: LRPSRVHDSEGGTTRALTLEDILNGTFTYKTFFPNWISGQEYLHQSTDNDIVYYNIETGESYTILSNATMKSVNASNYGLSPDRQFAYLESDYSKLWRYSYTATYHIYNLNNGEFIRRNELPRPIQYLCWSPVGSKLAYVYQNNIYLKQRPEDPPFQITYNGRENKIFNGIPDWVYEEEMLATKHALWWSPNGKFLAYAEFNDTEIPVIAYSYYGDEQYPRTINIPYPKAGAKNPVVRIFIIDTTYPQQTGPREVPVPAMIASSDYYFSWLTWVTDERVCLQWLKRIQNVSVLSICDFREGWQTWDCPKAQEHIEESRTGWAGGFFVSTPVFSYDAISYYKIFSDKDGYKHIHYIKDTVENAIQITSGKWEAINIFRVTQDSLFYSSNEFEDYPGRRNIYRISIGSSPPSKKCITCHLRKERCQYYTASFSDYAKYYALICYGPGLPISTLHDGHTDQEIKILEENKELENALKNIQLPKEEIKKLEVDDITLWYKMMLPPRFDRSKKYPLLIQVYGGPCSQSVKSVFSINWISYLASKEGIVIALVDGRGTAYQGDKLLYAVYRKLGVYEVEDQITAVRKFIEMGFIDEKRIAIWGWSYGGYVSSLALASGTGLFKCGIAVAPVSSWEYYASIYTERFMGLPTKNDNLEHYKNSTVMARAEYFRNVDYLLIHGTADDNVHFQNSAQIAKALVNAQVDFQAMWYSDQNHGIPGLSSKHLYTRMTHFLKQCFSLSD
Method: (§1) Cross-reactivity of the anti-hFAP antibodies with caFAP-ECD was tested using ELISA. 120 nM of caFAP-ECD was coated on Maxisorp plates overnight at 4° C. […] Specifically, the C5 antibody was employed in IgG2a format, while all other antibodies, including the 7NP2 antibody, were in IgG1 format. The differences between the IgG2a and IgG1 formats are not expected to affect binding to FAP. After 3 washes with PBS, binding of the antibodies to caFAP-ECD was detected using an anti-human or anti-murine antibody HRP conjugate.

[2] = target: T2, ovine FAP (oFAP) extracellular domain (ECD) (sheep); assay: ELISA, 120 nM oFAP-ECD coated on Maxisorp plates
T2 construct: also called oFAP-ECD
T2 chain: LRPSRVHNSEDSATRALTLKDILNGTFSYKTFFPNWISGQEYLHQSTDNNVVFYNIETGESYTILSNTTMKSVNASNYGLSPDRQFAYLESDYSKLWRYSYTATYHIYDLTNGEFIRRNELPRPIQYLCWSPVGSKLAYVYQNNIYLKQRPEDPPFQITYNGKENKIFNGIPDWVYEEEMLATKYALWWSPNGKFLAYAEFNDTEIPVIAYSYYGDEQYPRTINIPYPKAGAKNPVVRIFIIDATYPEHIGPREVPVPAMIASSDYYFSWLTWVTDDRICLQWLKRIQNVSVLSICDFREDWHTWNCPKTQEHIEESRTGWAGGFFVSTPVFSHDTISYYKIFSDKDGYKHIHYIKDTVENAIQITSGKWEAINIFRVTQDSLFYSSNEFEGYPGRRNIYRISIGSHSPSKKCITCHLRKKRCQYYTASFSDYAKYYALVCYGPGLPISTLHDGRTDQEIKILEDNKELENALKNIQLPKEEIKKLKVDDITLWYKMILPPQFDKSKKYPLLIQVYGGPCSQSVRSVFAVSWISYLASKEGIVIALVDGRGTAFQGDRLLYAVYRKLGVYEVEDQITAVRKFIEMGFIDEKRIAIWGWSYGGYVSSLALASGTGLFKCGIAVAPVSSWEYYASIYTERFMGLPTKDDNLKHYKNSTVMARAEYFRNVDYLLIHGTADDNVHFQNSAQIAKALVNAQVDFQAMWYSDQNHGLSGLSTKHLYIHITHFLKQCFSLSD
Method: as §1, with “with oFAP-ECD and pFAP-ECD” for “with caFAP-ECD”, “of oFAP-ECD or pFAP-ECD” for “of caFAP-ECD”, “to oFAP-ECD and pFAP-ECD” for “to caFAP-ECD”

B1: anti-hen egg lysozyme antibody KSF in IgG1 format (antibody, V domains shown)
VH: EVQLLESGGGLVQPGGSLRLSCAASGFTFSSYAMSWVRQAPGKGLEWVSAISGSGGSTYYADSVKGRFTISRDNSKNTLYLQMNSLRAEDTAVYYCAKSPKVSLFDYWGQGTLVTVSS
VL: SSELTQDPAVSVALGQTVRITCQGDSLRSYYASWYQQKPGQAPVLVIYGKNNRPSGIPDRFSGSSSGNTASLTITGAQAEDEADYYCQSSPLNRLAVVFGGGTKLTVLG
notes: Negative control; It was conjugated to FITC in the immunofluorescence and ex vivo experiments; also called KSF IgG1; KSF(IgG1)
B1: no binding (tested: 5 µg/mL) [1]; no binding (tested: 5 µg/mL) [2].
